As a reminder, the Kd is the constant that tells how readily two partners part at equilibrium.

Data on two molecules can be found in publication PMC11297931, “Structural basis of Cdk7 activation by dual T-loop phosphorylation” (Nature Communications, 2024).

For assay [1], the target named is T1, Mat1 (230-309) (human, UniProt P51948).
T1 construct: also called C-terminal fragment of Mat1; source: lysate pooled with GST-Cdk7/Cyclin H lysate; purified (MBPTrap, TEV, SEC, reverse MBP and GST); not shown: MBP, N-terminal, cleaved
Put plainly: crystal structure; Cdk7/Cyclin H/Mat1(230-309) mixed 1:1 with VHH RD7-04, with 1 mM ADP/Mg2+; hanging drop, 0.1 M Hepes pH 7.0, PEG 6K/4K, 15 °C; 2.15 Å. The settings on record: both partners purified.

In assay [2] the target is Cdk7(R167A)/Cyclin H binary complex (human, UniProt P50613 2-346; P51946 1-323, R167A). Put plainly: cell-based or functional assay.
The target in assay [3] is T2, wild-type Cdk7/Cyclin H binary complex, doubly phosphorylated (human, UniProt P50613 2-346; P51946 1-323, phosphoserine at 164; phosphothreonine at 170 | M1 acetylated). Nature of the assay: cell-based or functional assay.
In assay [4] the target is T2, wild-type Cdk7/Cyclin H binary complex, …. Put plainly: SPR; MBP-Mat1(230-309) (15 nM) captured by anti-MBP antibody amine-coupled to a CM5 chip; Cdk7/Cyclin H complexes as analyte, multi-cycle kinetics, up to 150 nM, association 180 s, dissociation 900 s; 25 °C; 10 mM HEPES pH 7.4, 150 mM NaCl, 0.05% Tween20; steady-state affinity fit; Biacore 8K. The settings on record: both partners purified. (Surface plasmon resonance follows binding to a sensor surface in real time, without labels.)

T2 sequence (P50613 2-346, chain 1 of 2): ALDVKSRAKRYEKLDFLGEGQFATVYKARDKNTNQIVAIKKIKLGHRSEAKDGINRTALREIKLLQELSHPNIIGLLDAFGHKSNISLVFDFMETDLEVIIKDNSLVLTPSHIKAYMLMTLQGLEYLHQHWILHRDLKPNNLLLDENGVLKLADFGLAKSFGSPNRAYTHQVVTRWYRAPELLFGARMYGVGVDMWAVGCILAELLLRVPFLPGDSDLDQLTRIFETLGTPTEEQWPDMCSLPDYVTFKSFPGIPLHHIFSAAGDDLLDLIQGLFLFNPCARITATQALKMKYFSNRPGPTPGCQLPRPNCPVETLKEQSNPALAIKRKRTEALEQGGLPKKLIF
T2 sequence (P51946 whole entry, chain 2 of 2): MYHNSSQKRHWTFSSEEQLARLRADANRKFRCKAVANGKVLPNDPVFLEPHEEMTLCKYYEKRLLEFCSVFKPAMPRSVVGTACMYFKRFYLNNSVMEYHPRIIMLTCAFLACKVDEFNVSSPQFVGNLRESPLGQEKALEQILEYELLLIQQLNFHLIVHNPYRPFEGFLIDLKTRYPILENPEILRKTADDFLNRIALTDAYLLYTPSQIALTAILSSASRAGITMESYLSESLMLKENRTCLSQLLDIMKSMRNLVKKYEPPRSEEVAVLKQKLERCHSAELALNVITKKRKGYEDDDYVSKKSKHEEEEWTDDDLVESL
Chain of Cdk7(R167A)/Cyclin H binary complex (P50613 2-346 R167A, chain 1 of 2): as the sequence (P50613 2-346, chain 1 of 2) above, with R166A counted along it
Chain of Cdk7(R167A)/Cyclin H binary complex (P51946 whole entry, chain 2 of 2): as the sequence (P51946 whole entry, chain 2 of 2) above

B1: VHH_(RD7-04), form for co-crystallization (VHH)
VHH: QVQLVESGGGLVQPGGSLRLSCVASGFTFKNFYMGWVRQAPDKGLEWVATINSGGEIQSYADSVKGRFTISRDNAKNTLYLQMNNLRPEDTAVYYCSKQSSTPAKGQGTQVTVSS
notes: nanobody chain of the deposited structure PDB 8PYR; Expression construct pelB-His6-TEV-NB in a modified pET28a vector; also called nanobody VHH RD7-04; chaperoning nanobody; source: E. coli BL21 (DE3), periplasmic extract, purified (HisTrap, TEV, SEC, reverse Ni-NTA); not shown: His6, N-terminal, cleaved
Consider B1, for which the binding result in assay [1] was “binds”.

B2: MBP-Mat1_(230-309) (domain or fragment, human, UniProt P51948 230-309, looked up)
chain: GQHISLAPIHKLEEALYEYQPLQIETYGPHVPELEMLGRLGYLNHVRAASPQDLAGGYTSSLACHRALQDAFSGLFWQPS
notes: source: Sf9 (baculovirus), expressed separately from Cdk7/Cyclin H; purified as an MBP fusion protein; also in lysate (pooled with GST-Cdk7/Cyclin H lysate); not shown: MBP, N-terminal, kept
For B2, the “stimulation of kinase activity by Mat1 addition, normalized to the complex without Mat1 (Fig. 3f)” value in assay [2] is approximately 5 fold; in assay [3], approximately 10 fold. In assay [4], the Kd was 9.8 nM.
